In paper doi:10.1101/2021.09.14.460262 (bioRxiv, 2021) one finds Kd data, which are given here for 2 molecules.

The target in test [1] is mVDAC1 labelled with Alexa Fluor 532 C5-maleimide (UniProt Q60932). The test is described as follows: MST.
In test [2] the target is mVDAC1 labelled with Alexa Fluor 532 C5-maleimide (UniProt Q60932 14-296, Alexa Fluor 532 C5-maleimide label). Description: MST.
mVDAC1 labelled with Alexa Fluor 532 C5-maleimide (UniProt Q60932 14-296, Alexa Fluor 532 C5-maleimide label), sequence (Q60932 14-296): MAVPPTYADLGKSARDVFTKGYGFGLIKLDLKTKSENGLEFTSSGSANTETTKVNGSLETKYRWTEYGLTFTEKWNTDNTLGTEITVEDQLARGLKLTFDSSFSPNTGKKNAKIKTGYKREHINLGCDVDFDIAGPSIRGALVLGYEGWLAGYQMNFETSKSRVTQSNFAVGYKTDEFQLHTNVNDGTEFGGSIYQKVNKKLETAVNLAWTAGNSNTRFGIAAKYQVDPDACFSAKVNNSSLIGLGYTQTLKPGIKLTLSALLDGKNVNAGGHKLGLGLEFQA

mVDAC1 labelled with Alexa Fluor 532 C5-maleimide (UniProt Q60932), sequence (Q60932 14-296): as above

For “caspase 8-cleaved recombinant BID (His-rtBID) (domain or fragment)”, the Kd (commonly the constant that tells how readily two partners part at equilibrium) in test [1] amounted to 37.1 µM.

B1: recombinant full length His6-BID (natural protein, UniProt P70444 1-195, looked up)
chain: MDSEVSNGSGLGAEHITDLLVFGFLQSSGCTRQELEVLGRELPVQAYWEADLEDELQTDGSQASRSFNQGRIEPDSESQEEIIHNIARHLAQIGDEMDHNIQPTLVRQLAAQFMNGSLSEEDKRNCLAKALDEVKTAFPRDMENDKAMLIMTMLLAKKVASHAPSLLRDVFHTTVNFINQNLFSYVRNLVRNEMD
Regarding B1, in test [2], binding was put at a Kd of 1420 µM.
